Results on 1 molecule are retold here after paper PMC6280682, “The Micronemal Plasmodium Proteins P36 and P52 Act in Concert to Establish the Replication-Permissive Compartment Within Infected Hepatocytes” (Frontiers in Cellular and Infection Microbiology, 2018).

The assay concerns the target T1, Plasmodium yoelii P36 with a C-terminal mCherry tag (P36^mCherry) (Plasmodium yoelii, UniProt Q7RPW4 25-310).
T1 construct: P36, Plasmodium yoelii 17X, 6-cys s48/45 family, two s48/45 domains; predicted MW with mCherry 66 kDa; also called Py P36^mCherry; not shown: mCherry, C-terminal, kept
T1 sequence: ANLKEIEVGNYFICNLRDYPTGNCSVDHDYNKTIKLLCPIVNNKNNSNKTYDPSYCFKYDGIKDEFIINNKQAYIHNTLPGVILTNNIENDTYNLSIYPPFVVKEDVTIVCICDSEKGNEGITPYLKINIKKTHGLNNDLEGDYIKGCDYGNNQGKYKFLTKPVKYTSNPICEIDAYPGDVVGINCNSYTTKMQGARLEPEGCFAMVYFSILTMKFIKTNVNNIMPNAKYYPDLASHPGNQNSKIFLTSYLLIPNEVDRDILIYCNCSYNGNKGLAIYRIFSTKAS
The experiment in a line: affinity purification with mass spectrometry; BS3-crosslinked P36^mCherry sporozoite lysate immunoprecipitated with RFP-Trap, S-Trap digest, LC-MS/MS (Q-Exactive HF), spectral counting. The following applies: partners not purified.

The stoichiometry N is the number of molecules, sites or subunits per partner or assembly.

B1: Plasmodium yoelii P52 (natural protein)
chain: NVPNPNTTIGHFEICEVNTSSGDAEECVLENEFGKMFLFICDIDYNEMSKNIVLPSECAKKTYIDHVNPNGTSPEVNTYDIFPDLIAANESQFRDKFYFYGTPYSSKDIDFICLCFSETKPDIKHVMKMSFKKMTKKIKGCDFGDNIPTKKDLTNGKALYENSSCHIYAYPGDVIGINCYKKDINNIYNNNLELQPNNCFHNVYYEDDILLSSKNLIPNSRVIPDPSNDVKLSKMHSYMSYIILPDEINENVKISCACKRDEYIGTMFLYVNTSKNILTSPDNNVEEIAPLNDHYISIGDMWDMGLHENPEQIQGIISNHANKKYYEHMKIYKSNKMDSSDDDESNETESSENESNERTHNGNRANKDANNSEKMTGNRRKKNNSINNTNYYSNYEDDNGINISTHDKYYEDQHFGNNGPLRKKRTFWQNMFGTS
notes: P52, Plasmodium yoelii 17X, 6-cys s48/45 family, two s48/45 domains; predicted MW 53 kDa; also called Py P52; source: endogenous, P. yoelii P36^mCherry salivary gland sporozoite lysate
On to B1, for which the “stoichiometry N” value is ~1.
